Measured values: patent US11525133 (dated 2022)

Biological target: p53-TPR2
Test: ITC

- Kd: 54 nM
B1: Mdm2 N-terminal domain (other)
chain: SQIPASEQETLVRPKPLLLKLLKSVGAQKDTYTMKEVLFYLGQYIMTKRLYDEKQQHIVYCSNDLLGDLFGVPSFSVKEHRKIYTMIYRNLVVVNQQESSDSGTSVSEN
